# Patent US20160229919A1 (US Dept. of Health and Human Services, published 2016)
# B1: YP218 rabbit monoclonal antibody (antibody, V domains shown)
# VH: QQQLEESGGGLVKPEGSLTLTCKASGFDLGFYFYACWVRQAPGKGLEWIACIYTAGSGSTYYASWAKGRFTISKASSTTVTLQMTSLAAADTATYFCARSTANTRSTYYLNLWGPGTLVTVSS
# VL: DVVMTQTPASVSEPVGGTVTIKCQASQRISSYLSWYQQKPGQRPKLLIFGASTLASGVPSRFKGSGSGTEYTLTISDLECADAATYYCQSYAYFDSNNWHAFGGGTEVVV
# B2: YP3 rabbit monoclonal antibody (antibody, V domains shown)
# VH: QEQLVESGGGLVQPGASLTLTCTASGIDFSRYYMCWVRQAPGKGLEGIACIYIGGSGSTYYASWAKGRFTISKASSTTVTLQMTSLTAADTATYFCARGTNLNYIFRLWGPGTLVTVSS
# VL: DVVMTQTPSPVSAAVGGTVTIKCQASQSINNGLAWYQQKPGQPPRLLIYSASNLESGVPSRFKGSGSGTEFTLTISDLECDDAATYYCQCIWDGNSYVNAFGGGTEVVV
# B3: YP158 rabbit monoclonal antibody (antibody, V domains shown)
# VH: QSLEESGGDLVKPGASLTLTCTASGFSFSGDYYMCWVRQAPGKGLEWIACIGGGSNTATYYATWAKGRFTISKTSSTTVTLQMTSLTAADTATYFCARDLGFVDYALELWGPGTLVTVSS
# VL: DIVMTQTPASVEVAVGGTVTIKCQASENMYNSLAWYQQKPGQPPKLLIYRASTLESGVPSRFKGSGSGTEYTLTISDLECADAATYYCQCTFYSHNNNYGGAFGGGTEVVV
# notes: Rabbit hybridoma mAb (rabbit IgG)
# B4: YP223 rabbit monoclonal antibody (antibody, V domains shown)
# VH: QEQLEESGGDLVQPEGSLTLTCKASGLDFSSSYWICWVRQAPGKGLEWIGCRHTFTANTWSASWVNGRFTISRSTSLGTVDLKMTSLTAADTATYFCARDESNNDGWDFKLWGPGTLVTVSS
# VL: AYDMTQTPASVSAAVGGTVTIKCQASQSISNYLAWYQQKPGQPPKLLIYQASTLAPGVSSRFKGSGSGTEFTLTISGVECADAATYYCQQGYTSSNVENVFGGGTGVVV
# Key:
# [1] = target: human transferrin receptor (human) (UniProt P02786); assay: cell-based or functional assay
# [2] = target: human transferrin receptor (human) (UniProt P02786); assay: flow cytometry on L55 cells
# [3] = target: human transferrin receptor (human) (UniProt P02786); assay: flow cytometry on YOU cells
# [4] = target: human transferrin receptor (human) (UniProt P02786); assay: flow cytometry on EKVX cells
# [5] = target: human transferrin receptor (human) (UniProt P02786); assay: flow cytometry on NCI-H322M cells
# [6] = target: cell-surface mesothelin on mesothelin-expressing cells (human) (UniProt Q13421); assay: cell-based or functional assay
# [7] = target: cell-surface mesothelin on mesothelin-expressing cells (human) (UniProt Q13421); assay: flow cytometry on H9 cells
# [8] = target: cell-surface mesothelin on mesothelin-expressing cells (human) (UniProt Q13421); assay: flow cytometry on H9 cells; remark: listed apart in the source
# [9] = target: cell-surface mesothelin on mesothelin-expressing cells (human) (UniProt Q13421); assay: flow cytometry on L55 cells
# [10] = target: cell-surface mesothelin on mesothelin-expressing cells (human) (UniProt Q13421); assay: flow cytometry on M30 cells
# [11] = target: cell-surface mesothelin on mesothelin-expressing cells (human) (UniProt Q13421); assay: flow cytometry on YOU cells
# [12] = target: cell-surface mesothelin on mesothelin-expressing cells (human) (UniProt Q13421); assay: flow cytometry on EKVX cells
# [13] = target: cell-surface mesothelin on mesothelin-expressing cells (human) (UniProt Q13421); assay: flow cytometry on KMBC cells
# [14] = target: cell-surface mesothelin on mesothelin-expressing cells (human) (UniProt Q13421); assay: flow cytometry on KMCH cells
# [15] = target: cell-surface mesothelin on mesothelin-expressing cells (human) (UniProt Q13421); assay: flow cytometry on OVCAR8 cells
# [16] = target: cell-surface mesothelin on mesothelin-expressing cells (human) (UniProt Q13421); assay: flow cytometry on Mz-Cha-1 cells
# [17] = target: cell-surface mesothelin on mesothelin-expressing cells (human) (UniProt Q13421); assay: flow cytometry on NCI-H226 cells
# [18] = target: cell-surface mesothelin on mesothelin-expressing cells (human) (UniProt Q13421); assay: flow cytometry on NCI-H322M cells
# [19] = target: cell-surface mesothelin on mesothelin-expressing cells (human) (UniProt Q13421); assay: flow cytometry on NCI-ADR-RES cells
# [20] = target: recombinant mesothelin protein (full-length mesothelin) (human) (UniProt Q13421); assay: ELISA, mAb titrated on mesothelin (1 ug/ml), fit with Prism
# [21] = target: mesothelin Region I fragment (residues 296-390) (human, UniProt Q13421 296-390); assay: ELISA on mesothelin fragments
# [22] = target: mesothelin-Fc fusion protein (human) (UniProt Q13421); assay: sandwich ELISA: YP223 capture, mesothelin-Fc titrated, biotinylated YP218 detection
# Sequence of human transferrin receptor (human) (P02786 whole entry): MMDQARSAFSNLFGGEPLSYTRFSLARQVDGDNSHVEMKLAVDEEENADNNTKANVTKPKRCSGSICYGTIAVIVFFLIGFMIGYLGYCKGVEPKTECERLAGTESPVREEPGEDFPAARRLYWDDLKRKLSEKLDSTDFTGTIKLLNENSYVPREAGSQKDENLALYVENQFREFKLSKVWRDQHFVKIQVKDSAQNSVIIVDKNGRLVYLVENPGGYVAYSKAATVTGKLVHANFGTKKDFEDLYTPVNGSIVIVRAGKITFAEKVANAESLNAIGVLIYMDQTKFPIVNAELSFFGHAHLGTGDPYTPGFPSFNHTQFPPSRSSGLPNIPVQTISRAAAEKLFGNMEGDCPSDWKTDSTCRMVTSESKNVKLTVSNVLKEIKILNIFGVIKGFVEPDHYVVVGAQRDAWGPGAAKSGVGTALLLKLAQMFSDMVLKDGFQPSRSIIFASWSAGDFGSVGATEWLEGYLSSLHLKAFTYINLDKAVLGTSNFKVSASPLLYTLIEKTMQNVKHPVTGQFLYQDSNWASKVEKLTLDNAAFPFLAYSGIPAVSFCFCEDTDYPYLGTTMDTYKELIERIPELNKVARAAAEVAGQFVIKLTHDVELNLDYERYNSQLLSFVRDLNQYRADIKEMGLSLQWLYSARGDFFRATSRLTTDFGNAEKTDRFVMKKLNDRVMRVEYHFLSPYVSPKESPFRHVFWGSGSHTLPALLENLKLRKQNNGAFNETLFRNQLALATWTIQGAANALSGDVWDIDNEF
# Sequence of mesothelin Region I fragment (residues 296-390) (Q13421 296-390): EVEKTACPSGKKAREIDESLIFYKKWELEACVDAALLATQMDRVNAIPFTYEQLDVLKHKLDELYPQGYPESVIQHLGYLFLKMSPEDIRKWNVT
molecule,measurement,setting,value
HB21-PE40 immunotoxin,"IC50 (ng ml^-1), cytotoxicity on EKVX cells",[1],0.21 ng/mL
same,"IC50 (ng ml^-1), cytotoxicity on H226-GL cells",[1],0.22 ng/mL
same,"IC50 (ng ml^-1), cytotoxicity on L55 cells",[1],0.57 ng/mL
same,"IC50 (ng ml^-1), cytotoxicity on M30 cells",[1],0.51 ng/mL
same,"IC50 (ng ml^-1), cytotoxicity on NCI-ADR-RES cells",[1],0.12 ng/mL
same,"IC50 (ng ml^-1), cytotoxicity on NCI-H322M cells",[1],0.31 ng/mL
same,Kd,[2],9.74 nM
same,Kd,[3],24.7 nM
same,Kd,[4],6.28 nM
same,Kd,[5],6.05 nM
SS1P immunotoxin,"IC50 (ng ml^-1), cytotoxicity on EKVX cells",[6],55.4 ng/mL
same,"IC50 (ng ml^-1), cytotoxicity on H9 cells",[6],0.076 ng/mL
same,"IC50 (ng ml^-1), cytotoxicity on H226-GL cells",[6],1.99 ng/mL
same,"IC50 (ng ml^-1), cytotoxicity on KMBC cells",[6],3.39 ng/mL
same,"IC50 (ng ml^-1), cytotoxicity on KMCH cells",[6],7.23 ng/mL
same,"IC50 (ng ml^-1), cytotoxicity on L55 cells",[6],5.89 ng/mL
same,"IC50 (ng ml^-1), cytotoxicity on M30 cells",[6],7.13 ng/mL
same,"IC50 (ng ml^-1), cytotoxicity on Mz-Cha-1 cells",[6],21.6 ng/mL
same,"IC50 (ng ml^-1), cytotoxicity on NCI-ADR-RES cells",[6],1.2 ng/mL
same,"IC50 (ng ml^-1), cytotoxicity on NCI-H226 cells",[6],5.29 ng/mL
same,"IC50 (ng ml^-1), cytotoxicity on NCI-H322M cells",[6],4.02 ng/mL
same,"IC50 (ng ml^-1), cytotoxicity on OVCAR8 cells",[6],1.82 ng/mL
same,"IC50 (ng ml^-1), cytotoxicity on YOU cells",[6],13 ng/mL
same,"IC50 (ng/ml), cytotoxicity on RH16 mesothelioma patient primary cells",[6],10.4 ng/mL
same,"IC50 (ng/ml), cytotoxicity on RH18 mesothelioma patient primary cells",[6],> 100 ng/mL
same,"IC50 (ng/ml), cytotoxicity on RH19 mesothelioma patient primary cells",[6],0.63 ng/mL
same,"IC50 (ng/ml), cytotoxicity on RH21 mesothelioma patient primary cells",[6],0.73 ng/mL
same,Kd,[7],4.82 nM
same,Kd,[8],1.3 nM
same,Kd,[9],1.04 nM
same,Kd,[10],0.49 nM
same,Kd,[11],1.48 nM
same,Kd,[12],1.7 nM
same,Kd,[13],2.15 nM
same,Kd,[14],1.26 nM
same,Kd,[15],0.6 nM
same,Kd,[16],1.3 nM
same,Kd,[17],1.49 nM
same,Kd,[18],0.44 nM
same,Kd,[19],1.41 nM
B1,Kd,[20],0.91 nM
B2,Kd,[20],0.42 nM
B3,binding result,[21],binds
B4,Kd,[20],0.65 nM
same,EC50,[22],0.5 nM
